The record followed here is paper PMC3923644.

Data set [1] addresses T1, APE1 NΔ33 (Homo sapiens, UniProt P27695 34-318, del1-33). The data set can be described thus: EMSA. (In general: In EMSA bound probe runs differently from free probe, usually more slowly.)
Data set [2] addresses T2, APE1 WT (Homo sapiens, UniProt P27695 1-318). The data set can be described thus: SPR. In general terms: In SPR one partner is held on a chip, and binding of the other changes the refractive index at the surface.
Data set [3] deals with T1, APE1 NΔ33. The data set can be described thus: SPR.
For data set [4], the target named is T2, APE1 WT. Nature of the data set: EMSA.
In data set [5] the target is T2, APE1 WT. Nature of the data set: SPR. This is another data set of the same source.

Read-outs that look alike come from different tables or passages of the source.

T2 sequence (P27695 whole entry): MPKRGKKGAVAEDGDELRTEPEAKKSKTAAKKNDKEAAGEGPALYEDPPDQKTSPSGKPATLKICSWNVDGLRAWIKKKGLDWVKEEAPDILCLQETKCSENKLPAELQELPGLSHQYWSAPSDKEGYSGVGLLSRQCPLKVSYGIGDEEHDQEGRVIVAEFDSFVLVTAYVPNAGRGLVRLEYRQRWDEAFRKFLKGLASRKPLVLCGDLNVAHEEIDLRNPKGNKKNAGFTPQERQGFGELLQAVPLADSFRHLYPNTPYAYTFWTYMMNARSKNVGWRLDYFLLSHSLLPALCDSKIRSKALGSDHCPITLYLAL
T1 sequence (P27695 34-318, stated change not applied): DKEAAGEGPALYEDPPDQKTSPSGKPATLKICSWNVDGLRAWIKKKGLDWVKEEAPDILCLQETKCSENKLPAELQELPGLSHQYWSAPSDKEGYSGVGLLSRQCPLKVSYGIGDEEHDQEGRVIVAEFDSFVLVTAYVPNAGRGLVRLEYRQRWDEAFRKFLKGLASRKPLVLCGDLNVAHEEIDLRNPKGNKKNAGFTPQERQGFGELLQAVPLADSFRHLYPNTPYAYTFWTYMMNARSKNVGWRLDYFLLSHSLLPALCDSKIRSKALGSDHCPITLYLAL

B1: nCaRE-B SIRT1-B (dsDNA)
DNA 1: TTTTTGAGACGGAGTTTCGCTCTTG
DNA 2: CAAGAGCGAAACTCCGTCTCAAAAA
Take B1: in data set [1], the binding result is “no binding”.

B2: poly(dT) 24-mer (ssDNA)
DNA: TTTTTTTTTTTTTTTTTTTTTTTT
The term Kd denotes the equilibrium constant for the complex coming apart. With B2, the equilibrium dissociation constant (Kd) in data set [2] was 308 ± 3 µM. Moreover, the binding result in data set [3] is “no binding”.

B3: nCaRE-B SIRT1-B (biotinylated) (dsDNA)
DNA 1: TTTTTGAGACGGAGTTTCGCTCTTG
DNA 2: CAAGAGCGAAACTCCGTCTCAAAAA
For B3, the Kd in data set [2] came to 3.9 ± 0.08 µM. Also, the binding result in data set [3] is listed as “no binding”.

B4: nCaRE-B SIRT1-A (dsDNA)
DNA 1: TTTTTGAGACAGAGTTTCACTCTTG
DNA 2: CAAGAGTGAAACTCTGTCTCAAAAA
With B4, the binding result in data set [4] is reported as “binds”; in data set [1] it was “no binding”.

B5: nCaRE-B SIRT1-B mutated (biotinylated) (dsDNA)
DNA 1: TTTTTGCTAAGGAGCGTCGCTCTTG
DNA 2: CAAGAGCGACGCTCCTTAGCAAAAA
On to B5, for which, in data set [5], binding was put at a Kd of 119 ± 8 µM.
